From publication PMC9430884

Legend:
[1] = target: Gal4BD-CckAΔTM (Rhodobacter sphaeroides)
[2] = target: CckA_(L391F) (two-hybrid fusion) (Rhodobacter sphaeroides); details: scale: times higher concentration of Osp than for wild-type CckA

Substance Gal4AD-Osp (natural protein) has an inhibition of CckA autophosphorylation with [γ-32P]ATP, purified proteins (2.5 μM His6-CckA cytoplasmic domain, Osp-His6 0 to 10 μM, 30 min) [1] of 50% and an inhibition of CckA L391F autophosphorylation with [γ-32P]ATP, purified proteins (2.5 μM His6-CckA L391F cytoplasmic domain, Osp-His6 0 to 10 μM, 30 min), against wild-type CckA [2] of 4.
